Test results: patent US20120128689A1 (GlaxoSmithKline, published 2012)
Numbering of substitutions follows the chain as printed.

B1: A5M20 (antibody, human IgG1, kappa, V domains shown)
VH: QVQLVQSGAEVKKPGSSVKVSCKASGYTFTSYGITWVRQAPGQGLEWMGENYPRSGNTYYNEKFKGRVTITADKSTSTAYMELSSLRSEDTAVYYCARAEFISTVVAPYYYALDYWGQGTLVTVSS
VL: DIVMTQSPDSLAVSLGERATINCKASKKVTIFGSISALHWYQQKPGQPPKLIYNLAKLESGVPDRFSGSGSGTDFTLTISSLQAEDVAVYYCLQNKEVPYTFGGGTKVEIKR
B2: A5M12 (antibody, human IgG1, V domains shown)
VH: B1 VH
VL: DIVMTQSPDSLAVSLGERATINCKASKKVTIYGSTSALHWYQQKPGQPPKLIYNGAKPESGVPDRFSGSGSGTDFTLTISSLQAEDVAVYYCLQNKEVPYTFGGGTKVEIK
B3: A24AM18 (antibody, human IgG1, kappa, V domains shown)
VH: B1 VH with T58I
VL: B1 VL with I35T, L58P
B4: A3M0 (antibody, human IgG1, kappa, V domains shown)
VH: B1 VH with A99S
VL: B1 VL with L55G
notes: human gamma1 and kappa constant regions; Tested as HEK supernatant and as purified antibody; also called A3M0 purified
B5: A6M20 (antibody, human IgG1, kappa, V domains shown)
VH: B1 VH with A99V
VL: B1 VL
B6: A5M0 (antibody, human IgG1, kappa, V domains shown)
VH: B1 VH
VL: B1 VL with L55G
B7: A24AM4 (antibody, human IgG1, kappa, V domains shown)
VH: B1 VH with T58I
VL: B1 VL with I35T, L55G, L58P
B8: A5M21 (antibody, human IgG1, kappa, V domains shown)
VH: B1 VH
VL: B1 VL with F32Y, I35T, L58P
B9: A3M18 (antibody, human IgG1, kappa, V domains shown)
VH: B1 VH with A99S
VL: B1 VL with I35T, L58P

Columns and labels:
cyno IL-23 [1] = target: T1, cyno IL-23 (cyno, limits assumed); test: SPR Biacore T100, mAb from HEK supernatant captured on anti-human IgG, one concentration of cyno IL-23 (256 nM)
T1 construct: Heterodimer of p19 and p40; also called cynomolgus IL-23
T1 chain 1: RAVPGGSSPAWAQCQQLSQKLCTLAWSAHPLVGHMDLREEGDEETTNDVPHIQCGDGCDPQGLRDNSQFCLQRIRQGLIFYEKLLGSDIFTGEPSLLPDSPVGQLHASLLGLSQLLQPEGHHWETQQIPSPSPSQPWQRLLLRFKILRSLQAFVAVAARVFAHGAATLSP
T1 chain 2: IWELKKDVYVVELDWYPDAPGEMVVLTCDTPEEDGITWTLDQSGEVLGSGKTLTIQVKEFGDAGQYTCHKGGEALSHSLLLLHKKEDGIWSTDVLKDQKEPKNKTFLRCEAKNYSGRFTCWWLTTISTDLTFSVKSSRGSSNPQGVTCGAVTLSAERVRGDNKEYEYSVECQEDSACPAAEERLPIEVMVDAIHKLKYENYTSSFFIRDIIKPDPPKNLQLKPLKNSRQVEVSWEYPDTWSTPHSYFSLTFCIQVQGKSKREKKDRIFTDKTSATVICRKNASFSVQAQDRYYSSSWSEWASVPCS
Protocol: (§1) An anti-human IgG (Biacore BR-1008-39) was immobilised on a Biacore CM5 chip by primary amine coupling in accordance with the manufacturer's instructions. Anti IL-23 antibodies were captured on this surface and after a period of stabilisation, IL-23 (cyno or human) was passed over the antibody captured surface and a binding sensorgram was obtained. […] All runs were double referenced with a buffer injection over the captured antibody surface. Data was analysed using the 1:1 model using the software inherent to the Biacore T100. Analysis was carried out at 25° C. using HBS-EP buffer. Data presented in Tables 1 and 2 are on tissue culture supernatants of HEK cells transiently expressing the antibody of interest unless otherwise indicated.

human IL-23 [2] = target: T2, human IL-23 (human, UniProt Q9NPF7 20-189; P29460 23-328); test: SPR Biacore, purified mAb captured on anti-human IgG, human IL-23 64-0.062 nM
T2 construct: Heterodimer of p19 and p40; also called hIL-23
T2 sequence 1: T1 chain 1 with A12T, R75H, P131L
T2 sequence 2: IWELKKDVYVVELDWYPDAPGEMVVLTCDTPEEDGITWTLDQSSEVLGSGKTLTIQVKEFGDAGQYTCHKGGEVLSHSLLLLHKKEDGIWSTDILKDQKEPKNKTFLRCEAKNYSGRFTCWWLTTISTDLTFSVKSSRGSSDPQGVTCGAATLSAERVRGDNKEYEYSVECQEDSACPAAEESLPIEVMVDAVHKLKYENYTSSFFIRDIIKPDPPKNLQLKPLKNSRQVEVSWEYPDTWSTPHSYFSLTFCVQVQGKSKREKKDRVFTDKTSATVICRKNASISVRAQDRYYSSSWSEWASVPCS
Protocol: as §1
(§2) This experiment was repeated with purified IL-23 antibodies and data shown in Table 3 was generated using 64, 16, 4, 1, 0.25 and 0.062 nM concentrations of human and cyno IL-23.

human IL-23 [3] = target: T2, human IL-23; test: cell-based or functional assay
human IL-23 [4] = target: T2, human IL-23; test: inhibition ELISA: antibody pre-incubated with a constant concentration of human IL-23, IL-23 bound to plate-coated human IL23R Fc chimera detected with biotinylated anti-human IL12, OD450
Protocol: Plates were coated with human IL23R Fc chimera at […] (phosphate buffered saline). 50 μl/well of this mixture was incubated overnight at 4° C. The plates were then washed three times with Phosphate Buffered Saline with 0.05% Tween 20 (PBST). Plates were blocked with 4% skim milk powder (Fluka BioChemika #70166) PBST 100 μl/well for a minimum of 1 hour at room temperature. The plates were then washed three times with Phosphate Buffered Saline+0.05% Tween 20 (PBST). Various concentrations of antibody were incubated in a separate plate with a constant concentration of IL-23 for 1 hour at room temperature. 50 ul of each mixture were transferred to the assay plate and incubated at RT for 1 hr. They were then washed three times with Phosphate Buffered Saline+0.05% Tween 20 (PBST). Bound IL23 was detected by anti human IL12 Biotin labelled Ab (R&D systems BAF219) diluted to 100 ng/ml in 4% skim milk powder (Fluka BioChemika #70166) PBST. 50 μl/well of the biotinylated antibody was added and incubated at RT for 1 hour. The plates were then washed three times with Phosphate Buffered Saline+0.05% Tween 20 (PBST). SA HRP (GE healthcare RPN4401) was diluted 1/4000 in 4% skim milk powder (Fluka BioChemika #70166) PBS, 50 μl/well was added to the plates. The plates were then washed three times with Phosphate Buffered Saline+0.05% Tween 20 (PBST). 50 ul/well of TMB was added to the plates and incubated at RT for 15 min. 25 μl/well of 3 MH₂SO₄ was added to the wells already containing TMB. The plate was read at OD450 nm using the SOftmaxPRO versamax plate reader.

cyno IL-23 [5] = target: T1, cyno IL-23; test: SPR Biacore, purified mAb captured on anti-human IgG, cyno IL-23 64-0.062 nM
Protocol: as §1, §2

human IL-23 [6] = target: T2, human IL-23; test: SPR Biacore T100, mAb from HEK supernatant captured on anti-human IgG, human IL-23 64-0.062 nM
Protocol: as §1

cyno IL-23 [7] = target: T1, cyno IL-23; test: SPR Biacore T100, purified mAb captured on anti-human IgG, one concentration of cyno IL-23 (256 nM)
human IL-23 [8] = target: T2, human IL-23; test: SPR Biacore T100, purified mAb captured on anti-human IgG, human IL-23 64-0.062 nM

Row | Binder | Kd (cyno IL-23 [1]) | koff (cyno IL-23 [1]) | kon (cyno IL-23 [1]) | Kd (human IL-23 [2]) | koff (human IL-23 [2]) | kon (human IL-23 [2]) | IC50 (inhibition of IL-23 driven STAT3 phosphorylation in human activated T cell blasts) (human IL-23 [3]) | IC50 (read off the curve) (human IL-23 [4]) | Kd (cyno IL-23 [5]) | koff (cyno IL-23 [5]) | kon (cyno IL-23 [5]) | Kd (human IL-23 [6]) | koff (human IL-23 [6]) | kon (human IL-23 [6]) | Kd (cyno IL-23 [7]) | koff (cyno IL-23 [7]) | kon (cyno IL-23 [7]) | Kd (human IL-23 [8]) | koff (human IL-23 [8]) | kon (human IL-23 [8])
1 | B1 | 0.115 nM | 0.000306 s⁻¹ | 2.66e+06 M⁻¹ s⁻¹ | 0.061 nM | 0.00014 s⁻¹ | 2.29e+06 M⁻¹ s⁻¹ | 0.0685 nM | ~0.2 nM | 0.086 nM | 0.000176 s⁻¹ | 2.05e+06 M⁻¹ s⁻¹ | 0.066 nM | 0.000159 s⁻¹ | 2.41e+06 M⁻¹ s⁻¹ | – | – | – | – | – | –
2 | B2 | – | – | – | 0.08 nM | 0.000132 s⁻¹ | 1.66e+06 M⁻¹ s⁻¹ | – | ~0.2 nM | 0.093 nM | 0.000134 s⁻¹ | 1.45e+06 M⁻¹ s⁻¹ | – | – | – | – | – | – | – | – | –
3 | B3 | 0.092 nM | 0.000176 s⁻¹ | 1.91e+06 M⁻¹ s⁻¹ | 0.053 nM | 0.000115 s⁻¹ | 2.16e+06 M⁻¹ s⁻¹ | 0.0473 nM | ~0.2 nM | 0.07 nM | 0.000132 s⁻¹ | 1.88e+06 M⁻¹ s⁻¹ | 0.051 nM | 0.000122 s⁻¹ | 2.4e+06 M⁻¹ s⁻¹ | – | – | – | – | – | –
4 | B4 | 0.365 nM | 0.000484 s⁻¹ | 1.33e+06 M⁻¹ s⁻¹ | 0.186 nM | 0.000216 s⁻¹ | 1.16e+06 M⁻¹ s⁻¹ | 0.115 nM | ~0.7 nM | 0.302 nM | 0.000298 s⁻¹ | 984000 M⁻¹ s⁻¹ | 0.207 nM | 0.000239 s⁻¹ | 1.16e+06 M⁻¹ s⁻¹ | 0.332 nM | 0.000583 s⁻¹ | 1.76e+06 M⁻¹ s⁻¹ | 0.197 nM | 0.000235 s⁻¹ | 1.19e+06 M⁻¹ s⁻¹
5 | B5 | 0.136 nM | 0.000497 s⁻¹ | 3.65e+06 M⁻¹ s⁻¹ | – | – | – | – | – | – | – | – | 0.078 nM | 0.000205 s⁻¹ | 2.62e+06 M⁻¹ s⁻¹ | – | – | – | – | – | –
6 | B6 | – | – | – | 0.114 nM | 0.000175 s⁻¹ | 1.54e+06 M⁻¹ s⁻¹ | – | ~0.3 nM | 0.173 nM | 0.000224 s⁻¹ | 1.3e+06 M⁻¹ s⁻¹ | – | – | – | – | – | – | – | – | –
7 | B7 | – | – | – | 0.065 nM | 0.000132 s⁻¹ | 2.02e+06 M⁻¹ s⁻¹ | – | ~0.2 nM | 0.085 nM | 0.000147 s⁻¹ | 1.74e+06 M⁻¹ s⁻¹ | – | – | – | – | – | – | – | – | –
8 | B8 | 0.169 nM | 0.000123 s⁻¹ | 727000 M⁻¹ s⁻¹ | 0.064 nM | 0.000112 s⁻¹ | 1.74e+06 M⁻¹ s⁻¹ | 0.0384 nM | ~0.2 nM | 0.075 nM | 0.00012 s⁻¹ | 1.6e+06 M⁻¹ s⁻¹ | 0.065 nM | 0.000113 s⁻¹ | 1.73e+06 M⁻¹ s⁻¹ | – | – | – | – | – | –
9 | B9 | 0.185 nM | 0.000163 s⁻¹ | 883000 M⁻¹ s⁻¹ | – | – | – | – | – | – | – | – | 0.066 nM | 0.000115 s⁻¹ | 1.73e+06 M⁻¹ s⁻¹ | – | – | – | – | – | –
